Assay [1] deals with T1, recombinant human CD160 protein, soluble form, with a C-terminal tag of 6 histidine residues (R&D SYSTEMS) (human, UniProt O95971 27-159, limits assumed, biotinylated with EZ-Link sulfo-NHS-LC-biotin for BLI and ELISA; not biotinylated when immobilised on the CM5 chip for SPR).
T1 construct: domain: soluble form; Bought protein; also called hCD160-his; biotinylated CD160
T1 sequence: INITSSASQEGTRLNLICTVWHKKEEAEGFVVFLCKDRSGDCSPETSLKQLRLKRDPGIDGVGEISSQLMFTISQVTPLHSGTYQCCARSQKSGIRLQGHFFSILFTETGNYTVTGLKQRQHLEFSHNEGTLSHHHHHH
Kind of assay: BLI (repeats Table 9).

Assay [2] concerns the target T1, recombinant human CD160 protein, …. Kind of assay: BLI, biotinylated CD160 at 10 nM on streptavidin sensor, antibody 3.13-100 nM.
Assay [3] shares this target. Nature of the assay: BLI, biotinylated CD160 at 10 nM on streptavidin sensor, antibody 3.13-100 nM (row repeated from Table 9). The protocol:
(§1) All the experiments were carried out at 30° C. in the running buffer recommended by Fortebio (PBS with 0.1% (p/v) of bovine serum albumin (BSA) and 0.02% (v/v) Tween-20). This buffer was also used for diluting the various ligands and analytes. The samples deposited in a 96-well microplate (cat #738-0026, Dutscher) were shaken at 1000 revolutions per minute.
(§2) The dissociation constants and the association (kₒₙ) and dissociation (kdis) rate constants for each antibody were calculated by applying a 1:1 interaction model, with overall mathematical modelling of curves (fit) (Rmax bound by the sensor) on the ForteBio 9.0 data analysis software.
Background: In BLI a coated tip is dipped into the sample, and binding shifts an interference pattern.

Assay [4] shares this target. Nature of the assay: SPR (Biacore), design close to Example 2.
The target is the same in assay [5]. Kind of assay: BLI (Octet K2), biotinylated hCD160-His on streptavidin sensor, antibody as analyte. On the procedure:
as §1
Between the measurements, the surfaces of the biosensor were regenerated by exposing them to 3 cycles of 5 sec in 10 mM glycine, pH 2, followed by 5 sec in running buffer. The association and dissociation phases were measured for 300 seconds. All the measurements were corrected for the basic drift by subtracting a reference well with a ligand subjected only to the running buffer.
as §2

In assay [6] the target is T2, human CD160 (CD160 GPI isoform) on cells (human, UniProt O95971 25-159, GPI anchor).
T2 construct: whole, on cells; Used for all cells said to carry human CD160: transfected CHO-S and E300 cells and cells that carry it naturally (YT2C2, blood NK, CD8+ T, T CD4, CLL cells); also called hCD160; CHO-S-hCD160 (clone 2G10)
T2 sequence (looked up): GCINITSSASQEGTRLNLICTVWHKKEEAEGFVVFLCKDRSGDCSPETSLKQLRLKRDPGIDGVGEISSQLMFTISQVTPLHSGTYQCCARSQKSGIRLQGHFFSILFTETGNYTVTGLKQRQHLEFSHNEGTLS
Kind of assay: FACS on CHO cells overexpressing hCD160, soluble Fab in periplasmic extract. From the text:
(§3) The binding of the clones selected (from the rounds of selection on CD160 protein and on CHO-CD160 cells) as soluble Fab was also looked at by ELISA and FACS using periplasmic extracts (P.E). The binding of the soluble Fabs to the human CD160 protein, using ELISA, was detected using an anti-c-myc antibody followed by an anti-mouse HRP conjugated antibody. The binding of the soluble Fabs to the CHO cells overexpressing human CD160 was detected using an anti-c-myc antibody followed by a goat anti-mouse APC conjugated antibody. The results of the ELISA and FACS experiments using Fabs expressed at the surface of the phages or in periplasmic extracts confirmed the binding capacity of each of the affinity-matured H7 clones to human CD160.

Assay [7] addresses T1, recombinant human CD160 protein, …. Kind of assay: SPR (Biacore 3000), hCD160 on CM5 chip, periplasmic extract with soluble Fab diluted 1:5. The protocol:
The binding capacity of the H7 variants was also tested by surface plasmon resonance (SPR). For this, a Biacore 3000 (GE Healthcare) was used. […] The integrity of the immobilized human CD160 was confirmed using the anti-huCD160 H7 IgG1 antibody. For the kinetic measurements, concentrations in cascade of human ECD160 with two-fold dilutions (0.15 μM-10 μM) were injected, twice, in PBS, with a Biacore P20 buffer at 25° C. and a flow rate of 30 μl/min.
The regeneration conditions were tested and 10 pi of 10 mM NaOH/1M NaCl were injected for the regeneration between the sample injections. To analyse the binding of the clones to human CD160, the periplasmic extracts containing the soluble Fabs were diluted to 1:5 in BIACORE P20 buffer (10 mM Hepes, 150 mM NaCl, 3 mM EDTA, 0.005% Tween-20) with a flow rate of 30 μl/min for 120 seconds for the association; the dissociation was measured for 300 seconds.
The maximum absolute response of the binding of each of these variants (expressed as measurement of arbitrary response units at time=120 seconds post-injection of the antibody) was evaluated on a surface coated with CD160 protein.
In general terms: Surface plasmon resonance follows binding to a sensor surface in real time, without labels.

Assay [8] shares this target. Nature of the assay: ELISA, soluble Fab in periplasmic extract.
Excerpt: as §3
On the technique in general: In an ELISA, binding on a coated surface is turned into a signal by an enzyme label.

Assay [9] shares this target. Kind of assay: phage ELISA, Fab on phage. The text has this:
(§4) Thus, phage clones were generated and also made it possible to produce periplasmic extracts of bacteria, containing unpurified soluble Fabs. The individual clones were selected for their binding capacity to the human CD160 protein, by ELISA, and to cells expressing human CD160 by FACS, this being i) either in the form of gene III-Fab fusion proteins expressed at the surface of the filamentous phage or ii) in the form of periplasmic extracts containing fragments of unpurified soluble Fabs. The individual clones (in the form of periplasmic extracts containing fragments of soluble Fabs) were also classified according to their kinetic dissociation constant (kdis).
(§5) From a practical point of view, the binding of the phage to human CD160 was detected using an anti-M13 HRP conjugated antibody. The binding of the phage to the cells expressing CD160 was detected using a mouse anti-M13-biotin antibody followed by Streptavidin-PE.

Assay [10] concerns the target T2, human CD160 (CD160 GPI isoform) on cells. Nature of the assay: phage FACS on CHO cells expressing hCD160.
Excerpt: as §4, §5

B1: anti-CD160 H7 antibody in the human IgG1 format (antibody)
heavy: not shown
light: EIVLTQSPATLSLSPGERATLSCRASQSISNHLHWYQQKPGQAPRLLIKYASQSISGIPARFSGSGSGTDFTLTISSLEPEDFAVYFCQQSNSWPLTFGGGTKVEIKRTVAAPSVFIFPPSDEQLKSGTASVVCLLNNFYPREAKVQWKVDNALQSGNSQESVTEQDSKDSTYSLSSTLTLSKADYEKHKVYACEVTHQGLSSPVTKSFNRGEC
notes: also called H7 IgG1; ELB02101
What is called Kd is the free concentration of one partner at which half of the binding sites on the other are occupied at equilibrium, for simple one-to-one binding. A word on the koff: it is the rate constant with which the complex falls apart. As a reminder, the kon is the second-order rate constant of association. B1: the Kd in [1] stood at 2.94 nM; in assay [2] it was 2.94 nM; in assay [3], 2.94 nM; in [4], 12 nM; in assay [5], 4 nM. The koff in assay [1] was found to be 0.00109 s⁻¹; in assay [2], 0.00109 s⁻¹; in [3], 0.00109 s⁻¹; in assay [4], 0.00251 s⁻¹; in [5], 0.00235 s⁻¹. For the same molecule, the kon in assay [1] worked out at 370000 M⁻¹ s⁻¹; in [2] it was 370000 M⁻¹ s⁻¹; in assay [3] it was 370000 M⁻¹ s⁻¹; in assay [4], 209000 M⁻¹ s⁻¹; in assay [5] it was 587000 M⁻¹ s⁻¹. Besides, the “Binding response, at 50 nM of anti-CD160” value in assay [5] was 1.01 nm (arbitrary units).

B2: FJ1516MP02A12 (H7 VH family 3) Fab clone (Fab, V domains shown)
VH: QVQLVQSGAEVKKPGASVKVSCKASGYTFTDYWMQWIRQAPGQGLEWIGAIYPGDDDAQFTQKFRGRATLTADKSTSTAYMELSSLRSEDTAVYYCARRGIAAVVGGFDYWGQGTTLTVSS
VL: EIVLTQSPATLSLSPGERATLSCRASQSISNHLHWYQQKPGQAPRLLIKYASQSISGIPARFSGSGSGTDFTLTISSLEPEDFAVYFCQQSNSWPLTFGGGTKVEIK
notes: Tested as Fab on phage and as soluble Fab in periplasmic extract
Turning to B2, the “P.E FACS (% binding)” value in [6] stood at 1.23%. Also, in [7], the “Biacore R.U ratio (variant/FaWT 2E07)” value was determined as 1.5 fold; the “Biacore R.U ratio (variant/H7 WT)” value is 3.3 fold; the “Binding response, RU arbitrary unit (at t = 120 s post-mab injection)” value (“Binding response, RU arbitrary unit” for short) worked out at 20.1 RU. For the same molecule, the “P.E ELISA O.D450 nm on biotinylated CD160” value (“P.E ELISA O.D450 nm” below) in assay [8] came out at 0.148 OD450. The “Phage ELISA O.D450 nm on biotinylated CD160” value (shortened to “Phage ELISA O.D450 nm”) in [9] amounted to 6 OD450. Also, the “Phage FACS (% binding)” value in [10] stood at 92.1%.

B3: FJ1516MP02D09 (H7 VH family 2) Fab clone (Fab, V domains shown)
VH: QVQLVQSGAEVKKPGASVKVSCKASGYTFSESWMQWIRQAPGQGLEWIGAIYPGDDEARVTQKFRGRATLTADKSTSTAYMELSSLRSEDTAVYYCARRGIAAVVGGFDYWGQGTTLTVSS
VL: EIVLTQSPATLSLSPGERATLSCRASQSISNHLHWYQQKPGQAPRLLIKYASQSISGIPARFSGSGSGTDFTLTISSLEPEDFAVYFCQQSNSWPLTFGGGTKVEIK
notes: as for B2
Take B3: the “P.E FACS (% binding)” value in [6] was 1.08%. Also, in [7], the “Biacore R.U ratio (variant/FaWT 2E07)” value stood at 1.5 fold; the “Biacore R.U ratio (variant/H7 WT)” value was determined as 3.2 fold; the “Binding response, RU arbitrary unit” value was determined as 19.3 RU. Further, the “P.E ELISA O.D450 nm” value in assay [8] came out at 0.174 OD450. Further, in assay [9], the “Phage ELISA O.D450 nm” value was found to be 3.63 OD450. Moreover, in assay [10], the “Phage FACS (% binding)” value stood at 76.4%.

B4: FJ1516MP02G05 (H7 VH family 4) Fab clone (Fab, V domains shown)
VH: QVQLVQSGAEVKKPGASVKVSCKASGYTFADYWMQWIRQAPGQGLEWIGAIYPGDDDAQYTQKFRGRATLTADKSTSTAYMELSSLRSEDTAVYYCARRGIAAVVGGFDYWGQGTTLTVSS
VL: EIVLTQSPATLSLSPGERATLSCRASQSISNHLHWYQQKPGQAPRLLIKYASQSISGIPARFSGSGSGTDFTLTISSLEPEDFAVYFCQQSNSWPLTFGGGTKVEIK
notes: as for B2
B4: the “P.E FACS (% binding)” value in assay [6] stood at 1.06%. Moreover, in assay [7], the “Biacore R.U ratio (variant/FaWT 2E07)” value turned out to be 1.2 fold; the “Biacore R.U ratio (variant/H7 WT)” value turned out to be 2.6 fold; the “Binding response, RU arbitrary unit” value was 16 RU. For the same molecule, the “P.E ELISA O.D450 nm” value in [8] was 0.141 OD450. The “Phage ELISA O.D450 nm” value in [9] worked out at 3.46 OD450. Moreover, the “Phage FACS (% binding)” value in [10] came out at 86.9%.

For the origin of these results see patent US20200109211A1 (ELSALYS BIOTECH, published 2020).
